T1: PUF4 RNA-binding domain (Saccharomyces cerevisiae, UniProt P25339 537-888)
T1 sequence: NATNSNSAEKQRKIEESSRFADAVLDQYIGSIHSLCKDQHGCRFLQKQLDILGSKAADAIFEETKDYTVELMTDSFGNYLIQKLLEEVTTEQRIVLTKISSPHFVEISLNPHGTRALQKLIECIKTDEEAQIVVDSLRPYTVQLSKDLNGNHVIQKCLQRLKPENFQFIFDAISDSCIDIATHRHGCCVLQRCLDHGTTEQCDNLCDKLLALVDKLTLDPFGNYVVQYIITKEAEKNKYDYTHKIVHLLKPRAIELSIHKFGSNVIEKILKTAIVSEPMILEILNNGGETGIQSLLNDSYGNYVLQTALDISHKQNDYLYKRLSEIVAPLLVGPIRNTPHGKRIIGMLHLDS


target: T1, PUF4 RNA-binding domain; test: Mg; RNA-MaP; 20 mM Na-HEPES pH 7.4, 30 mM KOAc, 0.75 mM MgCl2, 0.1% Tween-20, 5% glycerol, 0.1 mg/mL BSA, 2 mM DTT; 25 C; 0.0125-409.6 nM protein; settings: tags: N-His6-TEV cleaved; C-SNAP kept, Cy3B-labelled; label: tethered on chip by stalled RNA polymerase

| Binder | Kd [nM] |
| --- | --- |
| UCUCUUCCUAUAUAUAACUCUCUU (ssRNA) [Id_ii_S1_P3E.3_K3.2_C3.2_[T-1C]_H3.2_A3.1_F3.1_T3.2_[T9A]_[A10C]] | 1070 |
| UCUCUUCCUAUAUAUAUCUCUCUU (ssRNA) [Id_ii_S1_P3E.3_K3.2_C3.2_[T-1C]_H3.2_A3.1_F3.1_T3.2_[A10C]] | 1000 |
| UCUCUUCAUAUAUAUAUCUCUCUU (ssRNA) [Id_ii_S1_P3E.3_K3.2_C3.2_[T-1A]_H3.2_A3.1_F3.1_T3.2_[A10C]] | 717 |
| UCUCUUCAUAUAUAUACGUCUCUU (ssRNA) [Id_ii_S1_P3E.3_K3.2_C3.2_[T-1A]_H3.2_A3.1_F3.1_T3.2_[T9C]_[A10G]] | 1120 |
| UCUCUUCCUAUAUAUAUUUCUCUU (ssRNA) [Id_ii_S1_P3E.3_K3.2_C3.2_[T-1C]_H3.2_A3.1_F3.1_T3.2_[A10T]] | 673 |
| UCUCUUCCUAUAUAUACAUCUCUU (ssRNA) [Id_ii_S1_P3E.3_K3.2_C3.2_[T-1C]_H3.2_A3.1_F3.1_T3.2_[T9C]] | 1260 |
| UCUCUUCUUAUAUAUAGCUCUCUU (ssRNA) [Id_ii_S1_P3E.3_K3.2_C3.2_H3.2_A3.1_F3.1_T3.2_[T9G]_[A10C]] | 77.5 |
| UCUCUUCAUAUAUAUAUAUCUCUU (ssRNA) [Id_ii_S1_P3E.3_K3.2_C3.2_[T-1A]_H3.2_A3.1_F3.1_T3.2] | 624 |
| UCUCUUCAUAUAUAUACAUCUCUU (ssRNA) [Id_ii_S1_P3E.3_K3.2_C3.2_[T-1A]_H3.2_A3.1_F3.1_T3.2_[T9C]] | 1300 |
| UCUCUUCCUAUAUAUACCUCUCUU (ssRNA) [Id_ii_S1_P3E.3_K3.2_C3.2_[T-1C]_H3.2_A3.1_F3.1_T3.2_[T9C]_[A10C]] | 969 |
| UCUCUUCAUAUAUAUACUUCUCUU (ssRNA) [Id_ii_S1_P3E.3_K3.2_C3.2_[T-1A]_H3.2_A3.1_F3.1_T3.2_[T9C]_[A10T]] | 618 |
| UCUCUUCCUAUAUAUAUAUCUCUU (ssRNA) [Id_ii_S1_P3E.3_K3.2_C3.2_[T-1C]_H3.2_A3.1_F3.1_T3.2] | 578 |
| UCUCUUCCUAUAUAUACGUCUCUU (ssRNA) [Id_ii_S1_P3E.3_K3.2_C3.2_[T-1C]_H3.2_A3.1_F3.1_T3.2_[T9C]_[A10G]] | 1950 |
| UCUCUUCUUAUAUAUAGUUCUCUU (ssRNA) [Id_ii_S1_P3E.3_K3.2_C3.2_H3.2_A3.1_F3.1_T3.2_[T9G]_[A10T]] | 109 |
| UCUCUUCCUAUAUAUAUGUCUCUU (ssRNA) [Id_ii_S1_P3E.3_K3.2_C3.2_[T-1C]_H3.2_A3.1_F3.1_T3.2_[A10G]] | 770 |
| UCUCUUCCUAUAUAUAGCUCUCUU (ssRNA) [Id_ii_S1_P3E.3_K3.2_C3.2_[T-1C]_H3.2_A3.1_F3.1_T3.2_[T9G]_[A10C]] | 980 |
| UCUCUUCAUAUAUAUAGGUCUCUU (ssRNA) [Id_ii_S1_P3E.3_K3.2_C3.2_[T-1A]_H3.2_A3.1_F3.1_T3.2_[T9G]_[A10G]] | 804 |
| UCUCUUCUUAUAUAUACGUCUCUU (ssRNA) [Id_ii_S1_P3E.3_K3.2_C3.2_H3.2_A3.1_F3.1_T3.2_[T9C]_[A10G]] | 1260 |
| UCUCUUCAUAUAUAUAGCUCUCUU (ssRNA) [Id_ii_S1_P3E.3_K3.2_C3.2_[T-1A]_H3.2_A3.1_F3.1_T3.2_[T9G]_[A10C]] | 512 |
| UCUCUUCAUAUAUAUAGUUCUCUU (ssRNA) [Id_ii_S1_P3E.3_K3.2_C3.2_[T-1A]_H3.2_A3.1_F3.1_T3.2_[T9G]_[A10T]] | 413 |
| UCUCUUUAUACAUUAUCUCUU (ssRNA) [Ib_S1_P4E.1_K4.1_C4.1_H4.1_[G2A]_A4.1_[T5C]_F4.1_T4.1] | 23.8 |
| UCUCUUCUUAUAUAUACCUCUCUU (ssRNA) [Id_ii_S1_P3E.3_K3.2_C3.2_H3.2_A3.1_F3.1_T3.2_[T9C]_[A10C]] | 1300 |
| UCUCUUCAUAUAUAUAUUUCUCUU (ssRNA) [Id_ii_S1_P3E.3_K3.2_C3.2_[T-1A]_H3.2_A3.1_F3.1_T3.2_[A10T]] | 515 |
| UCUCUUCCUAUAUAUAGUUCUCUU (ssRNA) [Id_ii_S1_P3E.3_K3.2_C3.2_[T-1C]_H3.2_A3.1_F3.1_T3.2_[T9G]_[A10T]] | 787 |
| UCUCUUCCUAUAUAUAAGUCUCUU (ssRNA) [Id_ii_S1_P3E.3_K3.2_C3.2_[T-1C]_H3.2_A3.1_F3.1_T3.2_[T9A]_[A10G]] | 1540 |
| UCUCUUCAUAUAUAUAAUUCUCUU (ssRNA) [Id_ii_S1_P3E.3_K3.2_C3.2_[T-1A]_H3.2_A3.1_F3.1_T3.2_[T9A]_[A10T]] | 669 |
| UCUCUUUAUAAAUUAUCUCUU (ssRNA) [Ib_S1_P4E.1_K4.1_C4.1_H4.1_[G2A]_A4.1_[T5A]_F4.1_T4.1] | 128 |

Reference: PMC9352680, “A comprehensive thermodynamic model for RNA binding by the Saccharomyces cerevisiae Pumilio protein PUF4”
